According to patent US20200199241A1 (Chugai, published 2020):

Key:
Assay in all cases: SPR (Biacore);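 further: antibody variants captured on sensor chip, Fcγ receptor flowed over at 25 °C, bound receptor normalized to amount of captured antibody, expressed relative to reference antibody set as 100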
human FcγRIa = target: T1, human FcγRIa (human, UniProt P12314 16-292, limits assumed)
T1 construct: also called FcgRIa; FcγRI (CD64)

human FcγRIIa(R) = target: T2, human FcγRIIa(R) (human, UniProt P12318 36-217)
T2 construct: also called FcgRIIaR; FcγRIIa type R
T2 chain: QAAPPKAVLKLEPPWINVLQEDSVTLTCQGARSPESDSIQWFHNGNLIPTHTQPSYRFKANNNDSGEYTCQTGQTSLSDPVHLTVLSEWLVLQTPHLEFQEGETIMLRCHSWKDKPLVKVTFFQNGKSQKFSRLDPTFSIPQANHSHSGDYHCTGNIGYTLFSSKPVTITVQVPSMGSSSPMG

human FcγRIIa(H) = target: T3, human FcγRIIa(H) (human, UniProt P12318 36-217)
T3 construct: also called FcgRIIaH; FcγRIIa type H
T3 sequence: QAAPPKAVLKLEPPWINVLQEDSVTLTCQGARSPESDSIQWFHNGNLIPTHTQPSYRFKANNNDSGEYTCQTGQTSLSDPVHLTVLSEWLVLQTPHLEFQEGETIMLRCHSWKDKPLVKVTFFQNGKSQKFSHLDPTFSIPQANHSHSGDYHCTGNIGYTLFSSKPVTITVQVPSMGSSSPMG

human FcγRIIb = target: T4, human FcγRIIb (human, UniProt P31994 43-217, limits assumed)
T4 construct: also called FcgRIIb
T4 sequence: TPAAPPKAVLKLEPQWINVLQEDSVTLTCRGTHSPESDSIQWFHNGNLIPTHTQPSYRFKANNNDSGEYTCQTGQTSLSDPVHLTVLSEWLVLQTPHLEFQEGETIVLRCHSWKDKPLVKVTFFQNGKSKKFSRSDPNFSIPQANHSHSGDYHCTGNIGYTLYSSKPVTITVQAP

human FcγRIIIa(F) = target: T5, human FcγRIIIa(F) (human, UniProt P08637 17-208, limits assumed)
T5 construct: also called FcgRIIIaF; allotype F158
T5 sequence (P08637 other isoform, or with tags, fused parts or gaps limits assumed): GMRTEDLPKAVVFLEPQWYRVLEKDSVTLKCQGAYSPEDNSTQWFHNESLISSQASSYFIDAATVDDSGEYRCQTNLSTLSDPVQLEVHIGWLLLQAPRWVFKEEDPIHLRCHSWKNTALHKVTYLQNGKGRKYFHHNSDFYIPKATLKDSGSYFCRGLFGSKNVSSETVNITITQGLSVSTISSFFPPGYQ

T1 sequence (P12314 16-292 limits assumed): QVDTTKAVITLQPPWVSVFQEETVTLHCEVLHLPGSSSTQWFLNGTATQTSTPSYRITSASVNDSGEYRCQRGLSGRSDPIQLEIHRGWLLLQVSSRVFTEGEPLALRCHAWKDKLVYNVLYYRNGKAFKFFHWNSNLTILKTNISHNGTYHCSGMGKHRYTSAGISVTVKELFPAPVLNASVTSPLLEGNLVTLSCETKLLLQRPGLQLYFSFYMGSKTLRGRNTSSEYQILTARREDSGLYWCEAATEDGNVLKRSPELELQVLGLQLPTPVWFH

| Binder | relative binding activity (human FcγRIa) | relative binding activity (human FcγRIIa(R)) | relative binding activity (human FcγRIIa(H)) | relative binding activity (human FcγRIIb) | relative binding activity (human FcγRIIIa(F)) |
| --- | --- | --- | --- | --- | --- |
| GpH7-B3 variant E269K/GpL16-k0 (antibody, human IgG1, copies: 2 + 2) heavy: not shown light: DIVMTQSPLSLPVTPGEPASISCQASESLVHSNRNTYLHWYLQKPGQSPQLLIYKVSNRFSGVPDRFSGSGSGTDFTLKISRVEAEDVGVYYCSQNTHVPPTFGQGTKVEIE | 71 % of GpH7-B3/GpL16-k0 | 4 % of GpH7-B3/GpL16-k0 | 22 % of GpH7-B3/GpL16-k0 | 1 % of GpH7-B3/GpL16-k0 | 11 % of GpH7-B3/GpL16-k0 |
| GpH7-B3 variant D265A/GpL16-k0 (antibody, human IgG1, copies: 2 + 2) heavy: not shown light: DIVMTQSPLSLPVTPGEPASISCQASESLVHSNRNTYLHWYLQKPGQSPQLLIYKVSNRFSGVPDRFSGSGSGTDFTLKISRVEAEDVGVYYCSQNTHVPPTFGQGTKVEIE | 36 % of GpH7-B3/GpL16-k0 | 3 % of GpH7-B3/GpL16-k0 | 5 % of GpH7-B3/GpL16-k0 | 1 % of GpH7-B3/GpL16-k0 | -1 % of GpH7-B3/GpL16-k0 |
| GpH7-B3 variant D265F/GpL16-k0 (antibody, human IgG1, copies: 2 + 2) heavy: not shown light: DIVMTQSPLSLPVTPGEPASISCQASESLVHSNRNTYLHWYLQKPGQSPQLLIYKVSNRFSGVPDRFSGSGSGTDFTLKISRVEAEDVGVYYCSQNTHVPPTFGQGTKVEIE | 2 % of GpH7-B3/GpL16-k0 | -1 % of GpH7-B3/GpL16-k0 | 0 % of GpH7-B3/GpL16-k0 | -2 % of GpH7-B3/GpL16-k0 | -2 % of GpH7-B3/GpL16-k0 |
| GpH7-B3 variant D265G/GpL16-k0 (antibody, human IgG1, copies: 2 + 2) heavy: not shown light: DIVMTQSPLSLPVTPGEPASISCQASESLVHSNRNTYLHWYLQKPGQSPQLLIYKVSNRFSGVPDRFSGSGSGTDFTLKISRVEAEDVGVYYCSQNTHVPPTFGQGTKVEIE | 11 % of GpH7-B3/GpL16-k0 | 1 % of GpH7-B3/GpL16-k0 | 1 % of GpH7-B3/GpL16-k0 | -1 % of GpH7-B3/GpL16-k0 | -1 % of GpH7-B3/GpL16-k0 |
| GpH7-B3 variant D265H/GpL16-k0 (antibody, human IgG1, copies: 2 + 2) heavy: not shown light: DIVMTQSPLSLPVTPGEPASISCQASESLVHSNRNTYLHWYLQKPGQSPQLLIYKVSNRFSGVPDRFSGSGSGTDFTLKISRVEAEDVGVYYCSQNTHVPPTFGQGTKVEIE | 59 % of GpH7-B3/GpL16-k0 | 26 % of GpH7-B3/GpL16-k0 | 18 % of GpH7-B3/GpL16-k0 | 11 % of GpH7-B3/GpL16-k0 | 0 % of GpH7-B3/GpL16-k0 |
| GpH7-B3 variant D265I/GpL16-k0 (antibody, human IgG1, copies: 2 + 2) heavy: not shown light: DIVMTQSPLSLPVTPGEPASISCQASESLVHSNRNTYLHWYLQKPGQSPQLLIYKVSNRFSGVPDRFSGSGSGTDFTLKISRVEAEDVGVYYCSQNTHVPPTFGQGTKVEIE | 2 % of GpH7-B3/GpL16-k0 | -1 % of GpH7-B3/GpL16-k0 | 0 % of GpH7-B3/GpL16-k0 | -2 % of GpH7-B3/GpL16-k0 | -1 % of GpH7-B3/GpL16-k0 |
| GpH7-B3 variant D265K/GpL16-k0 (antibody, human IgG1, copies: 2 + 2) heavy: not shown light: DIVMTQSPLSLPVTPGEPASISCQASESLVHSNRNTYLHWYLQKPGQSPQLLIYKVSNRFSGVPDRFSGSGSGTDFTLKISRVEAEDVGVYYCSQNTHVPPTFGQGTKVEIE | 8 % of GpH7-B3/GpL16-k0 | -1 % of GpH7-B3/GpL16-k0 | 0 % of GpH7-B3/GpL16-k0 | 0 % of GpH7-B3/GpL16-k0 | -2 % of GpH7-B3/GpL16-k0 |
| GpH7-B3 variant D265L/GpL16-k0 (antibody, human IgG1, copies: 2 + 2) heavy: not shown light: DIVMTQSPLSLPVTPGEPASISCQASESLVHSNRNTYLHWYLQKPGQSPQLLIYKVSNRFSGVPDRFSGSGSGTDFTLKISRVEAEDVGVYYCSQNTHVPPTFGQGTKVEIE | 7 % of GpH7-B3/GpL16-k0 | 0 % of GpH7-B3/GpL16-k0 | 0 % of GpH7-B3/GpL16-k0 | 0 % of GpH7-B3/GpL16-k0 | -1 % of GpH7-B3/GpL16-k0 |
| GpH7-B3 variant D265M/GpL16-k0 (antibody, human IgG1, copies: 2 + 2) heavy: not shown light: DIVMTQSPLSLPVTPGEPASISCQASESLVHSNRNTYLHWYLQKPGQSPQLLIYKVSNRFSGVPDRFSGSGSGTDFTLKISRVEAEDVGVYYCSQNTHVPPTFGQGTKVEIE | 17 % of GpH7-B3/GpL16-k0 | -1 % of GpH7-B3/GpL16-k0 | 0 % of GpH7-B3/GpL16-k0 | -2 % of GpH7-B3/GpL16-k0 | -1 % of GpH7-B3/GpL16-k0 |
| GpH7-B3 variant D265N/GpL16-k0 (antibody, human IgG1, copies: 2 + 2) heavy: not shown light: DIVMTQSPLSLPVTPGEPASISCQASESLVHSNRNTYLHWYLQKPGQSPQLLIYKVSNRFSGVPDRFSGSGSGTDFTLKISRVEAEDVGVYYCSQNTHVPPTFGQGTKVEIE | 3 % of GpH7-B3/GpL16-k0 | -1 % of GpH7-B3/GpL16-k0 | 0 % of GpH7-B3/GpL16-k0 | -2 % of GpH7-B3/GpL16-k0 | -1 % of GpH7-B3/GpL16-k0 |
